In the nanobody polyreactivity screen of Harvey et al. (2022):

Assay: yeast display, Sf9 membrane polyspecificity reagent, FACS + sequencing; frameworks hold sequencing errors
How it was run: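 Synthetic nanobody libraries on Saccharomyces cerevisiae BJ5465 were galactose-induced for 36–48 hours, stained 1 hour at 4 °C with 10% biotinylated, detergent-solubilized Sf9 membrane reagent and enriched on streptavidin microbeads. FACS then separated cells into low and high (top ~1%) gates by anti-HA (expression) and streptavidin (reagent binding) fluorescence. Genes were colony-PCR amplified, MiSeq 2 × 250 sequenced and CDR-length filtered. A clone's polyreactivity label is that of its gate of origin.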

With “QVQLVESGGGLVQAGGSLRLSCAASGSTFQAYAMGWYRQAPGKERELVAAISVSDGITYYADSVKGRFTISRDNAKNTVYLQMNSLKPEDTAVNYCAAEISLSRSDRIESYDYWGQGTQVTVSS” the “polyreactivity (PSR sort gate)” value was “low polyreactivity”.

For “QVQLVESGGGLVQAGGSLRLSCAASGSTFQAYVMGWDRQAPGKERELVAAISRSGGSTYYADSVKGRFTISRDNAKNTVYLQLHSLKPEDTAVYYCAVDASRYGSTGHYGFYYWGQGTQVTVSS”, the “polyreactivity (PSR sort gate)” value was “low polyreactivity”.

With “QVQLVESGGGLVQAGGSLRLSCAASGSTFQDYAMGWYRQAPGKERELVAAITYSGGSTYYADSVKGRFTISRDNAKNTVYLQLNSLKPDVTAVYYCAAKDTTVFYYDDDYWGQGTQVTVSS” the “polyreactivity (PSR sort gate)” value was “low polyreactivity”.

In the case of “QVQLVESGGGLVQAGGSLRLSCAASGSTFQEYAMGWYRQAPGKERELVASIRWSGGRTYYADSVKGRFTISRDNAKNTVYLQMNSLKPEDTAVYYCNKVWVYAVTPSSWYKYGSWGQGTQVTVSS”, the “polyreactivity (PSR sort gate)” value is reported as “low polyreactivity”.

With “QVQLVESGGGLVQAGGSLRLSCAASGSTFQFYAMGWYRQAPGKERELVAVITSGDDTNYADSVKGRFTISRDNAKNTVYLQMNSLKPEDTAVYYCDVDYILVYTRVRSYWFDYWGQGTQVTVSS” the “polyreactivity (PSR sort gate)” value was “low polyreactivity”.

In the case of “QVQLVESGGGLVQAGGSLRLSCAASGSTFQHYAMGWYRQAPGKERELVAAITNTGGSTYYADSVKGRFTISRDNAKNTVYLQMNSLKPEDTAVYYCATVGRRYGYPGYYWGQGTQVTVSS”, the “polyreactivity (PSR sort gate)” value is reported as “low polyreactivity”.

For “QVQLVESGGGLVQAGGSLRLSCAASGSTFQHYAMGWYRQAPGKERELVAAITNTGGSTYYADSVKGRFTISRDNAMNTVYLLMNSLKPEDTAVYYCATVGRRYGYPGYYWGQGTQVTVSS”, the “polyreactivity (PSR sort gate)” value was “low polyreactivity”.

In the case of “QVQLVESGGGLVQAGGSLRLSCAASGSTFQINAMGWYRQAHGKERALVAAIDGGGDTYYADSVKGRFTISRDNAKKTDYLQMNSLKPEDTAVYYCAAERRIYYQDFNYCGQGTQVTVSS”, the “polyreactivity (PSR sort gate)” value is reported as “low polyreactivity”.

For “QVQLVESGGGLVQAGGSLRLSCAASGSTFQKYVMGWYRQAPGKERELVAAISINGVRTYYADSVKGRFTISRDYAKNTVYLQMNSLKPEDTAVFFCNNDTLIRRGSGRGYWGQGTQVNVSS”, the “polyreactivity (PSR sort gate)” value was “high polyreactivity”.

For “QVQLVESGGGLVQAGGSLRLSCAASGSTFQLYAMGWYRQAPGKERELVATISWRGGSTYYADSVKGRFTISRDNAKNTVYLQMNSLKPEDTAVYYCAADFYLRGRYYSRYGSWGQGTQVTVSS”, the “polyreactivity (PSR sort gate)” value was “high polyreactivity”.

With “QVQLVESGGGLVQAGGSLRLSCAASGSTFQPYAMGWYRQAPGKEREFVAAIRWGTGSTYYADSVKGRFTISRDNAKNTVYLQMNILKPEDTAVYYCAKRRVSASREYYWGQGTQVTVSS” the “polyreactivity (PSR sort gate)” value was “high polyreactivity”.

For “QVQLVESGGGLVQAGGSLRLSCAASGSTFQPYTMGWYRQAPGKERELVAAISSSGRTNYADSVKGRFTISRDNAKNTVYLQMNSLKPEDTAVYYCNRDYPYIWHKGARYWHENDYWGQGTQVTVSS”, the “polyreactivity (PSR sort gate)” value was “low polyreactivity”.

In the case of “QVQLVESGGGLVQAGGSLRLSCAASGSTFQRYAMGGYRQAPGKERQLVAAISSGGSTYYADSVKGRFTISRDNAKNTVYLQINSLKPEDTAVYYCAARIYVVWSSRVYWMYYWGQGTQVTVSS”, the “polyreactivity (PSR sort gate)” value is reported as “high polyreactivity”.

With “QVQLVESGGGLVQAGGSLRLSCAASGSTFQRYAMGWYRQAPGKERELVAAITWSNGSTYYADSVKGRFTISRDNAKNTVYLQMNSLKPEDTAVYYCDAEVHLGGDYWGQGTQVTVSS” the “polyreactivity (PSR sort gate)” value was “low polyreactivity”.

With “QVQLVESGGGLVQAGGSLRLSCAASGSTFQRYVIGWYRQAPGKERELVAAITRTGASTYYADSVKGRFTISRDNAKNTVYLQMNSLKPEDTAVYYCAARYRLGSYTYDYSGQGTQVTVSS” the “polyreactivity (PSR sort gate)” value was “high polyreactivity”.

In the case of “QVQLVESGGGLVQAGGSLRLSCAASGSTFQTNAMGWYRQAPGKERELVAGIRWRGGSTYYADSVKGRFTISRDNAKNTVYLQMNSLKPEDSAVYYCAAYYLWHHYLFDYWGQGTQVTVSS”, the “polyreactivity (PSR sort gate)” value is reported as “high polyreactivity”.

With “QVQLVESGGGLVQAGGSLRLSCAASGSTFQTYAMGWYRQAPGKERELVASINWRSGSTYYADSVKGRFTISRDNAKNTVYLQMNSLKPEDTAVYSCAAELDFSPGYYYLYDYWGQGTQVTVSS” the “polyreactivity (PSR sort gate)” value was “low polyreactivity”.

In the case of “QVQLVESGGGLVQAGGSLRLSCAASGSTFQTYVMGWYRQAPGKERELVAAITWSGGSTYYADSVKGRFTISRDNAKNTVYLQMNSLKPEDTAVYYCAARFPWRGGVKYSYYFQHDYWGQGTQVTVSS”, the “polyreactivity (PSR sort gate)” value is reported as “high polyreactivity”.

With “QVQLVESGGGLVQAGGSLRLSCAASGSTFQVYAKGWYRQAPGKERELVAAIDSGVSTYYADSVKGLFTFSRDNAKNTVYLQMNSLKPEDTAVYYWYGYDYWGQGTQVTVSS” the “polyreactivity (PSR sort gate)” value was “low polyreactivity”.

For “QVQLVESGGGLVQAGGSLRLSCAASGSTFQVYAMGWYRQAPGKERELVATIRRTGGSTYYADSVKGRFTISRDNAKNTVYLQMNSLKPEDTAVYYCAARLGYAGNRDGSWGQGTQVTVSS”, the “polyreactivity (PSR sort gate)” value was “high polyreactivity”.

In the case of “QVQLVESGGGLVQAGGSLRLSCAASGSTFQVYGLGWYRQAPGKERELVAAISRSGGRTYYADSVKGRFTISRDNAKNTVYLQMNSLKPEDTAVYYCAKTYQTTTSKSGYYYWGQGTQVTVSS”, the “polyreactivity (PSR sort gate)” value is reported as “high polyreactivity”.

For “QVQLVESGGGLVQAGGSLRLSCAASGSTFQVYTMGWYRQAPGKEREFVASISWSGSSTYYADSVKGRFTISRDNAKNTVYLQMNSLKPEDTAVYYCAAPDESYSVWRLDGLDYWGQGTQVTVSS”, the “polyreactivity (PSR sort gate)” value was “high polyreactivity”.

For “QVQLVESGGGLVQAGGSLRLSCAASGSTFQYYAMGWYRQAPGKERELVAAISSGGSTYYADSVKGRFTISRDNAKNTVYLQMNSLKPEDTAVYYCAADFVNRQANRQFDYWGQGTQVTVSS”, the “polyreactivity (PSR sort gate)” value was “high polyreactivity”.

With “QVQLVESGGGLVQAGGSLRLSCAASGSTFQYYAMGWYRQEPGKEREFVASISGSGGSTNYADSVKGRFTISRDNAKNTVYLQMNSLKPEDTAVYYCAKEYVTEFQGYYYWGQGTQVTVSS” the “polyreactivity (PSR sort gate)” value was “low polyreactivity”.

For “QVQLVESGGGLVQAGGSLRLSCAASGSTFQYYDMGWYRQAPGKERELVASITGSGDSTYYADSVKGRFTISRDNAKNTVYLQMNSLKPEDTAVYYWGQGTQVTVSS”, the “polyreactivity (PSR sort gate)” value was “low polyreactivity”.

With “QVQLVESGGGLVQAGGSLRLSCAASGSTFRANTMGWYRQAPGKERELVAAITSGGSTYYADSVKGRFTISRDNAKNTVYLQMNSLKPEDTAVYYCAADYTGDWADGPHSLREYDYWGQGTQVTVSS” the “polyreactivity (PSR sort gate)” value was “low polyreactivity”.

With “QVQLVESGGGLVQAGGSLRLSCAASGSTFRDYAMGWYRQAPGKERELVASITSGSSTYADSVKGRFTISRDNAKNTVYLQMNCLKPEDTAVYYCNADGITSLPVPALDYWGQGTQVTVSS” the “polyreactivity (PSR sort gate)” value was “low polyreactivity”.

With “QVQLVESGGGLVQAGGSLRLSCAASGSTFREYTMGWYRQAPGKEWDLVAAITNSGGSTYYADSVKGRFTISRDNAKNTVYLQMNSLKPEDTAVYYCAAEVGIVDYDYWGQGNQVTVSS” the “polyreactivity (PSR sort gate)” value was “low polyreactivity”.

For “QVQLVESGGGLVQAGGSLRLSCAASGSTFRFNAMGWYRQAPGKEREFVAAIRFTGGSTYYADSVKGRFTISRDNAKNTVYLQMNSLKPEDTAVYYCNNADEYSTVEYDYWGQGSQVTVSS”, the “polyreactivity (PSR sort gate)” value was “low polyreactivity”.

With “QVQLVESGGGLVQAGGSLRLSCAASGSTFRFYAMGWYRQAPGKERELVATISSSGGTTYYADSVKGRFTISRDNAKNTVYLQMNSLKPEDTAVYYCAARYYDTRWRYYYWGQGTQVTVSS” the “polyreactivity (PSR sort gate)” value was “high polyreactivity”.

With “QVQLVESGGGLVQAGGSLRLSCAASGSTFRGNAMGWYRQAPGKERELVAAITRRGGSTYYADSVKGRFTISRDNAKNTVYLQMNRLKPEDTAVYYCAADWGNDWWGLFWGDYWGQGTQVTVSS” the “polyreactivity (PSR sort gate)” value was “high polyreactivity”.

For “QVQLVESGGGLVQAGGSLRLSCAASGSTFRGNAMGWYRQAPGKERELVASITGGGSTNYADSVKGRFTISRDNAKNTVYLQMNSLKPEDTAVYYCAADWGADFYWGQGTQVTVSS”, the “polyreactivity (PSR sort gate)” value was “low polyreactivity”.
